# Experimental data reported in US20160031944A1 (PROTAGONIST THERAPEUTICS, published 2016).
# What was measured:
# [1] = biological target: T1, rh integrin α4β7 (R&D Systems #5397-A30) (human, UniProt P13612 34-977; P26010 20-723); assay: α4β7-MAdCAM competition ELISA
# T1 construct: bought; coated on a nickel coated plate at 800 ng/well; also called A4B7
# Procedure: A nickel coated plate (Pierce #15442) was coated with rh integrin α4β7 (R&D Systems #5397-A30) at 800 ng/well and incubated at room temperature with shaking for 1 hr. The solution was then removed by shaking and blocked with assay buffer (50 mM Tris-HCl pH7.6, 150 mM NaCl, 1 mM MnCl₂ or MgCl₂, 0.05% Tween-20 and 0.5% BSA) at 250 ul/well. The plate was then incubated at room temperature for 1 hr. Each well was washed 3 times with wash buffer (50 mM Tris-HCl pH7.6, 100 mM NaCl, 1 mM MnCl₂ or MgCl₂, 0.05% Tween-20). To each well was added 25 ul of a serial dilution (3-fold dilutions in assay buffer) of peptides starting at 20 μM. 25 ul of recombinant human MAdCAM-1 (R&D Systems #6056-MC) was then added to each well at a fixed concentration 20 nM. The final starting peptide concentration was 10 μM, and the final MAdCAM-1 concentration was 10 nM. The plates were then incubated at room temperature for 1 hr to reach binding equilibrium. The wells were then washed three times with wash buffer. 50 ul of mouse anti-human IgG1-HRP (Invitrogen #A10648) diluted in 1:2000 in assay buffer was then added to each well. The wells were incubated at room temperature for 45 min with shaking. The wells were then washed 3 times with wash buffer. 100 ul of TMB were then added to each well and closely observe during development time. The reaction was stopped with 2N H₂SO₄ and absorbance was read at 450 nm.
# [2] = biological target: T2, α4β1 (R&D Systems #5668-A4) (UniProt P13612 34-977; P05556 21-728); assay: α4β1-VCAM competition ELISA
# T2 construct: bought; printed as αβ1; detected with mouse anti-human CD49d antibody 9F10; also called αβ1; A4B1
# T2 sequence (P13612 34-977 limits assumed, chain 1 of 2): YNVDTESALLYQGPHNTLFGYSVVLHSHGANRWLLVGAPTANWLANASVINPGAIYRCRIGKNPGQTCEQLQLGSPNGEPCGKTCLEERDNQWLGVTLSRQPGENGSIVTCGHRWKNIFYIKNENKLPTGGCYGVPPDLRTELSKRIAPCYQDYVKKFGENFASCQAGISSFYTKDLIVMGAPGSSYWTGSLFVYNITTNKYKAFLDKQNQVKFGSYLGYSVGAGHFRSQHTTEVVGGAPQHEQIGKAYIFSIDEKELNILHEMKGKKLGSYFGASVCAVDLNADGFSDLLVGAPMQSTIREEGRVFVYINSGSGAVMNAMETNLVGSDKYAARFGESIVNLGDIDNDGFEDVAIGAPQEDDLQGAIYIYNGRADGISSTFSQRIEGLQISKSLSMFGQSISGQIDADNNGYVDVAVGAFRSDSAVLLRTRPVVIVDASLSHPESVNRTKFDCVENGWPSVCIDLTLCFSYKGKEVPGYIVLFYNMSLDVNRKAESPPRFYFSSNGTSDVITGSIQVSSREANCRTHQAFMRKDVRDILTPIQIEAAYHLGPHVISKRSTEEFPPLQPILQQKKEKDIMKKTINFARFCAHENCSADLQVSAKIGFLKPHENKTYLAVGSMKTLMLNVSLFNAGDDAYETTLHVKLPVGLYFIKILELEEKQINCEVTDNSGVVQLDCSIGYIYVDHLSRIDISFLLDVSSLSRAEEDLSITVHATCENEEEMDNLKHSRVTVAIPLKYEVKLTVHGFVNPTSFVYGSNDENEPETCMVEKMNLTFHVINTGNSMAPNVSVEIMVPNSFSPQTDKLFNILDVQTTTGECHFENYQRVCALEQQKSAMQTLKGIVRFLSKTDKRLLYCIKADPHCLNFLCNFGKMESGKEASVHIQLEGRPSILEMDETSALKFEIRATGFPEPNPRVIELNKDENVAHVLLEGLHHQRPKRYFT
# T2 sequence (P05556 21-728 limits assumed, chain 2 of 2): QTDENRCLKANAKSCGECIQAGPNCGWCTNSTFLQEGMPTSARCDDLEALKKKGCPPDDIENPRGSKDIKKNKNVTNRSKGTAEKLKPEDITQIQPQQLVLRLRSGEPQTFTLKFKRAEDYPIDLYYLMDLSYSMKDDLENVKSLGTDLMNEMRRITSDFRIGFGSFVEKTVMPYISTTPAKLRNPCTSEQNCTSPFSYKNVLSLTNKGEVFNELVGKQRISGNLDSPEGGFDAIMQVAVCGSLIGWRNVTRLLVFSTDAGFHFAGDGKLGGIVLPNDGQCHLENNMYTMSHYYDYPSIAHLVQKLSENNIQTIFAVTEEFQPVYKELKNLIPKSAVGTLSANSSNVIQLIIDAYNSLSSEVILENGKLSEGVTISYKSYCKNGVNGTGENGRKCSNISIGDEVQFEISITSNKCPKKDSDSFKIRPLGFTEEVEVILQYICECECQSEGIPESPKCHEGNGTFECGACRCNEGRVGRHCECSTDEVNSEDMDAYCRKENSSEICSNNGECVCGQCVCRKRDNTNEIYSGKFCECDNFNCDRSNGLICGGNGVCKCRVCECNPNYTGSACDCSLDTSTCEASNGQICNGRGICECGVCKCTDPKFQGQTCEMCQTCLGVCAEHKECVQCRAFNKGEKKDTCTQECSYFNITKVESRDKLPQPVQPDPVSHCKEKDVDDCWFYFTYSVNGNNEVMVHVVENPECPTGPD
# Procedure: The solution was removed by shaking and then blocked with 250 ul of 1% BSA in 1×PBS per well. The wells were then incubated at room temperature for 1 hr with shaking. Each well was then washed once with wash buffer (50 mM Tris-HCl pH7.6, 100 mM NaCL, 1 mM MnCl₂ or MgCl₂, 0.05% Tween-20). 25 ul of serial dilutions of peptides starting at 200 μM in assay buffer (Assay buffer: 50 mM Tris-HCl pH7.6, 100 mM NaCl, 1 mM MnCl₂ or MgCl₂, 0.05% Tween-20) was added to each well. […] The final peptide and αβ1 concentrations were 100 μM and 60 nM, respectively. The plates were then incubated at 37° C. for 2 hr. The solution was then removed by shaking and each well was washed three times with wash buffer. 50 ul of 9F10 antibody at 4 ug/ml (purified mouse anti-human CD49d, BD Bioscience Cat#555502) was then added to each well, and the plate was incubated at room temperature for 1 hr with shaking. The solution was again removed by shaking, and each well was washed three times with wash buffer. 50 ul of peroxidase-conjugated AffiniPure Goat anti-mouse IgG (Jackson immune research cat #115-035-003) diluted in 1:5000 in assay buffer was added to each well. The plate was incubated at room temperature for 30 min with shaking. Each well was then washed 3 times with wash buffer. […] The reaction was stepped with 2N H₂SO₄ and absorbance was read at 450 nm.
# T1 sequence (P13612 34-977 limits assumed, chain 1 of 2): as the sequence (P13612 34-977 limits assumed, chain 1 of 2) above
# T1 sequence (P26010 20-723 limits assumed, chain 2 of 2): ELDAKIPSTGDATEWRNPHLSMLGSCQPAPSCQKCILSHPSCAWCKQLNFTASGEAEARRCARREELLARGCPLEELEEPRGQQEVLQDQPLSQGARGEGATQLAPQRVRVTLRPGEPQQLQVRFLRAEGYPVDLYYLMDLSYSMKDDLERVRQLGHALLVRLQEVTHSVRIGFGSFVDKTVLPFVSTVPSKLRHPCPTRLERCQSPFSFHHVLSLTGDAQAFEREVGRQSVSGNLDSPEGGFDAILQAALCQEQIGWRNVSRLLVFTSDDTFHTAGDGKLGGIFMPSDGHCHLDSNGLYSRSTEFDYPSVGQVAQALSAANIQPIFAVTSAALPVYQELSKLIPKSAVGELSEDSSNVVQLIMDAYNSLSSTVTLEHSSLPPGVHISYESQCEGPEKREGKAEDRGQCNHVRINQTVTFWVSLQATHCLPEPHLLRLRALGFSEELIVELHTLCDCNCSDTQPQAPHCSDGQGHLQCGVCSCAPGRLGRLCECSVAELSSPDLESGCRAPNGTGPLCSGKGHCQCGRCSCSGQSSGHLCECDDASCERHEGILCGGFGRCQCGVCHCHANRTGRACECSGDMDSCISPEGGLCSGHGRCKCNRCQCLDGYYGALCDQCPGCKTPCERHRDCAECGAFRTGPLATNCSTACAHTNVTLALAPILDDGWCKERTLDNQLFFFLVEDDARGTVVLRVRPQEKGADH
binder,measurement,setting,value
"Ac-CRSDTLCGE-NH2 (also: cyclised, mode not given here, also called control peptide) [SEQ ID NO 385]",IC50,[1],0.097 µM
same,IC50,[2],2.02 µM
